Measured values reported in patent US20120244560A1 (ISHIHARA SANGYO, published 2012).

B1: monoclonal antibody produced by hybridoma ISK-MMH-TK2 (antibody, V domains shown)
VH: DVQLQDSGPGLVKPSQTVSLTCTVTGISITTGNFRWSWIRQFPGNKLEWIGYIYYSGTITYNPSLTSRTTITRDTSKNQFFLEMNSLTAEDTATYYCARELYGYGYFDVWAAGTTVTVSS
VL: DVVMTQIPLSLPVSLGDQASISCRSTQSLVHSNGNTYLHWFLQKPGQSPKLLIYKVSNRFSGVPDRFSGSGSGTDFTLKISRVEAEDLGVYFCSQSKYVPRTFGGGTKLEIKR
notes: used as hybridoma culture supernatant; The whole entries are named; they hold leader and primer-derived residues, X and *; also called FERM BP-11266
B3: HIG-1-Flag (human HIG-1 polypeptide with a Flag tag downstream, made in E. coli as GST-HIG-1-Flag, GST cleaved off with PreScission Protease) (other, UniProt Q9Y241 1-93, looked up)
chain: MSTDTGVSLPSYEEDQGSKLIRKAKEAPFVPVGIAGFAAIVAYGLYKLKSRGNTKMSIHLIHMRVAAQGFVVGAMTVGMGYSMYREFWAKPKP
notes: Expressed from pGST-HIG-1-Flag (pGEX 6P-1); also called HIG-1-Flag protein; not shown: Flag tag downstream of HIG-1

What was measured:
[1] = molecular target: B3; test: competitive ELISA, coated HIG-1-Flag, soluble HIG-1-Flag as competitor
Protocol: Specifically, the HIG-1-Flag obtained in Example 2 as a solid-phase antigen was coated at a concentration of 2.5 μg/mL (50 mM carbonate buffer solution, pH 9.6, Sigma, No. C3041) in an amount of 50 μL per well, onto a plate at room temperature for 1 hour. Washing was performed 3 times with PBS-T, and then blocking was conducted with PBS (10% FBS-PBS) containing 10% FBS for 1 hour. After washing was performed 3 times with PBS-T, the PBS-T diluent of the antibody culture supernatant obtained in Example 1 was mixed with a diluted solution of a competitive substance (serial dilution with PBS-T) and reacted at room temperature for 1 hour. The reaction mixture was placed in a plate in an amount of 50 W., per well and allowed to stand for 1 hour at room temperature. […] After reaction, the 405 nm absorbance was measured.
These antibodies were both capable of quantitatively measuring a HIG-1-Flag in the range of 0.7 to 6.2 ng/mL. The dissociation constant Kd of the monoclonal antibody to a HIG-1-Flag was calculated with reference to “Antibody engineering; A Practical Approach” (edited by McCafferty J., et al.), Chapter 4, 77-97, IRL Press Oxford.

[2] = molecular target: B1; test: competitive ELISA: HIG-1-Flag coated at 2.5 µg/mL, ISK-MMH-TK2 culture supernatant (diluted 3,200-fold) premixed with soluble HIG-1-Flag as competing agent, AP-labelled anti-mouse IgG, A405nm
Protocol: Specifically, the HIG-1-Flag obtained in Example 2 as a solid-phase antigen was coated at a concentration of 2.5 μg/mL (50 mM carbonate buffer solution, pH 9.6, Sigma, No. C3041) in an amount of 50 μL per well, onto a plate at room temperature for 1 hour. Washing was performed 3 times with PBS-T, and then blocking was conducted with PBS (10% FBS-PBS) containing 10% FBS for 1 hour. After washing was performed 3 times with PBS-T, the PBS-T diluent of the antibody culture supernatant obtained in Example 1 was mixed with a diluted solution of a competitive substance (serial dilution with PBS-T) and reacted at room temperature for 1 hour. The reaction mixture was placed in a plate in an amount of 50 W., per well and allowed to stand for 1 hour at room temperature. […] As competitive substances, a HIG-1-Flag (on which 3-fold serial dilution was performed 8 times from 0.167 μg/mL), KLH (on which 3-fold serial dilution was performed 8 times from 100 μg/mL), or GST (on which 3-fold serial dilution was performed 8 times from 100 μg/mL) was used. After washing was performed using PBS-T 3 times, the alkaline phosphatase-labeled secondary antibody (anti-mouse IgG) diluted 1,000-fold with 10% FBS-PBS-T was placed in an amount of 50 per well and allowed to stand at room temperature for 1 hour. […] After reaction, the 405 nm absorbance was measured.

B1
Kd [1]: 0.17 nM

B2: monoclonal antibody produced by hybridoma ISK-MMH-TK1 (antibody, V domains shown)
VH: EVQLQQSGPELVKPGASVKISCKTSGYTFTKYTMHWVKQSHGKSLEWIGGINPNNGGSRYDQKFRGKATLTVDKSSSTAYMEFRSLTSEDSAVYYCARDFVYWGQGTLVTVSA
VL: DVLMTQTPLSLPVSLGDQASISCRSSQSIVHSNGNTYLEWYLQKPGQSPKLLIYKVSNRFSGVPDRFSGSGSGTDFTLKISRVEAEDLGVYYCFQGSHVPWTFGGGTKLEIKR
notes: used as hybridoma culture supernatant; The whole entries are named; they hold leader and primer-derived residues, X and * that are not part of the mature antibody; also called FERM BP-11267
Kd [1]: 0.22 nM

B3
IC50 (read off the curve) [2]: ~2 ng/mL
